The supplement of paper PMC6757056
± gives the standard deviation of the averaged measurements.

B1: library; a variant is named by its letters at N, in order (parent)
chain: GCUGUCACCGAGAAACUGUGAAGUAUAUCUUAAACCUGGGCACUUAAAAGAUAUAUGGAGUUAGUAGUGCAACCUGCUCGGUCUGAUGAGUCCNNNNNNGGACGAAACAGC

Columns and labels:
cyclic di-GMP [1] = variants of: B1; experiment: normalized RNA/DNA level without ligand (relative to sTRSVctl = 100) (log10 (% of sTRSVctl)); HEK293T; ligand: cyclic di-GMP (c-di-GMP-II aptamer); higher = less ribozyme self-cleavage, higher mRNA level; details: reporter: mCherry (pCS4076), ligand present: no
Procedure, shortened: (§1)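 Total RNA, extracted with EDTA 72 h after HEK293T cells were transfected with 4 µg per 6-well well of reporter-linked ribozyme switch library plasmids, was reverse-transcribed, amplified, barcoded and sequenced. Ligand, if used, was added 1 h before transfection. RNA level was derived from RNA reads divided by DNA reads and normalized to a spiked-in non-cleaving sequence or to the top sequences. This was multiplied by 100 and log10-transformed, with the top set of 25 sequences and a ≥100 DNA read minimum.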

cyclic di-GMP [2] = variants of: B1; experiment: normalized RNA/DNA level with ligand (relative to sTRSVctl = 100) (log10 (% of sTRSVctl)); HEK293T; ligand: cyclic di-GMP (c-di-GMP-II aptamer); ligand concentration (+) RNA-Seq: 1 mM; higher = less ribozyme self-cleavage, higher mRNA level; details: reporter: mCherry (pCS4076), ligand present: yes
Procedure, shortened: as §1

Row | Variant | normalized RNA/DNA level without ligand (log10) (cyclic di-GMP [1]) | normalized RNA/DNA level with ligand (log10) (cyclic di-GMP [2])
1 | CCCUGA | 1.61 ± 0.068 | 1.82 ± 0.068
2 | CCCUGU | 1.75 ± 0.043 | 1.87 ± 0.13
3 | CCCUGG | 1.74 ± 0.022 | 1.85 ± 0.03
4 | ACGGUC | 1.637 ± 0.014 | 1.77 ± 0.17
5 | ACGGUG | 1.6002 ± 0.00028 | 1.74 ± 0.1
6 | ACGGCU | 1.56 ± 0.018 | 1.75 ± 0.12
7 | ACGGCC | 1.78 ± 0.063 | 1.87 ± 0.13
8 | ACGGCG | 1.75 ± 0.067 | 1.86 ± 0.1
9 | ACGGCA | 1.648 ± 0.011 | 1.77 ± 0.1
10 | GCGAAA | 1.34 ± 0.099 | 1.56 ± 0.096
11 | GCGAAG | 1.45 ± 0.068 | 1.63 ± 0.087
12 | GCGAAC | 1.28 ± 0.15 | 1.54 ± 0.052
13 | CCGACG | 1.6 ± 0.089 | 1.79 ± 0.052
14 | CCGACU | 1.59 ± 0.082 | 1.74 ± 0.077
15 | GCGAUU | 1.47 ± 0.024 | 1.69 ± 0.19
16 | GCGAUG | 1.59 ± 0.06 | 1.79 ± 0.096
17 | CCUAAA | 1.4 ± 0.07 | 1.61 ± 0.14
18 | UCGCAG | 1.762 ± 0.0034 | 1.87 ± 0.13
19 | UCGCAC | 1.697 ± 0.015 | 1.86 ± 0.084
20 | UCGCAU | 1.572 ± 0.0067 | 1.76 ± 0.092
21 | ACCUUA | 1.67 ± 0.015 | 1.79 ± 0.14
22 | ACCUUC | 1.74 ± 0.042 | 1.83 ± 0.11
23 | ACCUUG | 1.7 ± 0.065 | 1.81 ± 0.063

Row | Variant | normalized RNA/DNA level without ligand (log10) (cyclic di-GMP [1]) | normalized RNA/DNA level with ligand (log10) (cyclic di-GMP [2])
24 | ACCUUU | 1.63 ± 0.02 | 1.82 ± 0.081
25 | GCGGCA | 1.82 ± 0.032 | 1.9 ± 0.12
26 | GCGGCG | 1.842 ± 0.0045 | 1.9 ± 0.057
27 | GCGGCU | 1.75 ± 0.024 | 1.91 ± 0.14
28 | GCGGCC | 1.73 ± 0.039 | 1.86 ± 0.15
29 | ACCGUU | 1.52 ± 0.028 | 1.72 ± 0.1
30 | ACCGUG | 1.57 ± 0.096 | 1.77 ± 0.097
31 | UCGGGG | 1.69 ± 0.06 | 1.83 ± 0.11
32 | UCGGGA | 1.46 ± 0.035 | 1.72 ± 0.11
33 | UCGGGC | 1.83 ± 0.035 | 1.94 ± 0.086
34 | UCGGGU | 1.64 ± 0.09 | 1.79 ± 0.13
35 | GCCUGA | 1.6 ± 0.036 | 1.77 ± 0.069
36 | GCCUGC | 1.78 ± 0.032 | 1.86 ± 0.097
37 | GCCUGU | 1.69 ± 0.043 | 1.88 ± 0.12
38 | GCCUGG | 1.78 ± 0.061 | 1.91 ± 0.09
39 | UCCUAG | 1.71 ± 0.018 | 1.82 ± 0.087
40 | UCCUAU | 1.63 ± 0.085 | 1.8 ± 0.097
41 | UCCUAA | 1.63 ± 0.077 | 1.79 ± 0.067
42 | UCCUAC | 1.75 ± 0.04 | 1.87 ± 0.14
43 | CCGAAC | 1.56 ± 0.058 | 1.72 ± 0.12
44 | CCGAAU | 1.48 ± 0.13 | 1.68 ± 0.11
45 | GCGCCU | 1.774 ± 0.0061 | 1.88 ± 0.083
46 | GCGCCA | 1.699 ± 0.0061 | 1.84 ± 0.13

Row | Variant | normalized RNA/DNA level without ligand (log10) (cyclic di-GMP [1]) | normalized RNA/DNA level with ligand (log10) (cyclic di-GMP [2])
47 | GCGCCC | 1.79 ± 0.025 | 1.89 ± 0.038
48 | GCGCCG | 1.781 ± 0.0019 | 1.9 ± 0.1
49 | ACGCUU | 1.37 ± 0.076 | 1.6 ± 0.17
50 | ACGCUG | 1.62 ± 0.039 | 1.79 ± 0.089
51 | ACGCUA | 1.53 ± 0.026 | 1.72 ± 0.13
52 | UCGAGG | 1.772 ± 0.011 | 1.87 ± 0.13
53 | UCGUCA | 1.644 ± 0.00093 | 1.82 ± 0.11
54 | UCGUCG | 1.74 ± 0.03 | 1.88 ± 0.085
55 | UCGUCC | 1.794 ± 0.01 | 1.9 ± 0.081
56 | UCGUCU | 1.72 ± 0.043 | 1.89 ± 0.094
57 | GCCUCU | 1.721 ± 0.017 | 1.87 ± 0.04
58 | GCCUCC | 1.71 ± 0.02 | 1.84 ± 0.091
59 | GCCUCG | 1.761 ± 0.0043 | 1.892 ± 0.0091
60 | GCCUCA | 1.737 ± 0.0028 | 1.87 ± 0.068
61 | GCGGUC | 1.29 ± 0.072 | 1.52 ± 0.09
62 | GCGGUA | 1.55 ± 0.046 | 1.69 ± 0.09
63 | GCGGUG | 1.6984 ± 0.00046 | 1.79 ± 0.13
64 | ACGUCG | 1.605 ± 0.011 | 1.81 ± 0.12
65 | ACGUCU | 1.55 ± 0.087 | 1.74 ± 0.085
66 | ACGUCC | 1.75 ± 0.042 | 1.93 ± 0.12
67 | ACGUCA | 1.61 ± 0.033 | 1.76 ± 0.13
68 | GCGUAA | 1.44 ± 0.091 | 1.61 ± 0.096
69 | GCGUAC | 1.34 ± 0.086 | 1.52 ± 0.12

Row | Variant | normalized RNA/DNA level without ligand (log10) (cyclic di-GMP [1]) | normalized RNA/DNA level with ligand (log10) (cyclic di-GMP [2])
70 | UCCGUU | 1.6717 ± 0.00065 | 1.85 ± 0.12
71 | CCCUCG | 1.75 ± 0.0059 | 1.91 ± 0.097
72 | CCCUCU | 1.62 ± 0.03 | 1.8 ± 0.12
73 | UCCUGC | 1.79 ± 0.062 | 1.91 ± 0.053
74 | UCCUGU | 1.72 ± 0.018 | 1.88 ± 0.059
75 | UCCUGA | 1.69 ± 0.048 | 1.85 ± 0.1
76 | UCCUGG | 1.82 ± 0.057 | 1.91 ± 0.14
77 | UCGAAC | 1.62 ± 0.026 | 1.76 ± 0.1
78 | UCGAAU | 1.45 ± 0.1 | 1.69 ± 0.059
79 | UCGAAG | 1.52 ± 0.097 | 1.74 ± 0.058
80 | GCCGUU | 1.596 ± 0.013 | 1.77 ± 0.11
81 | ACGUUG | 1.52 ± 0.083 | 1.74 ± 0.035
82 | ACGUUA | 1.49 ± 0.045 | 1.65 ± 0.13
83 | ACGUUC | 1.61 ± 0.045 | 1.8 ± 0.1
84 | CCGAUU | 1.54 ± 0.052 | 1.73 ± 0.12
85 | CCGAUC | 1.55 ± 0.019 | 1.73 ± 0.094
86 | CCGAUA | 1.31 ± 0.13 | 1.54 ± 0.075
87 | ACCUCA | 1.62 ± 0.027 | 1.77 ± 0.12
88 | ACCUCU | 1.716 ± 0.0081 | 1.87 ± 0.1
89 | ACCUCG | 1.73 ± 0.056 | 1.83 ± 0.15
90 | ACCUGC | 1.71 ± 0.029 | 1.85 ± 0.076
91 | ACCUGG | 1.68 ± 0.081 | 1.88 ± 0.049
92 | ACCUGU | 1.72 ± 0.063 | 1.84 ± 0.13

Row | Variant | normalized RNA/DNA level without ligand (log10) (cyclic di-GMP [1]) | normalized RNA/DNA level with ligand (log10) (cyclic di-GMP [2])
93 | CCGGGC | 1.821 ± 0.013 | 1.93 ± 0.12
94 | CCGGGA | 1.51 ± 0.068 | 1.69 ± 0.089
95 | CCGGGU | 1.69 ± 0.066 | 1.81 ± 0.15
96 | ACGAAC | 1.53 ± 0.11 | 1.72 ± 0.067
97 | ACGAAU | 1.31 ± 0.061 | 1.53 ± 0.079
98 | CCGUCG | 1.68 ± 0.0046 | 1.82 ± 0.13
99 | CCGUCA | 1.592 ± 0.009 | 1.79 ± 0.047
100 | CCGUCU | 1.6 ± 0.061 | 1.78 ± 0.12
101 | ACGGAC | 1.52 ± 0.075 | 1.73 ± 0.09
102 | CCGUUU | 1.53 ± 0.058 | 1.71 ± 0.14
103 | CCGUUA | 1.36 ± 0.096 | 1.59 ± 0.15
104 | CCGUUC | 1.6 ± 0.047 | 1.78 ± 0.056
105 | GCGCGU | 1.59 ± 0.1 | 1.75 ± 0.044
106 | GCGCGC | 1.64 ± 0.07 | 1.8 ± 0.11
107 | GCGCGG | 1.796 ± 0.0029 | 1.87 ± 0.087
108 | UCGACG | 1.73 ± 0.0042 | 1.87 ± 0.099
109 | UCGACU | 1.6114 ± 7.1e-07 | 1.82 ± 0.12
110 | UCGACA | 1.619 ± 0.0042 | 1.77 ± 0.12
111 | GCGGAU | 1.43 ± 0.097 | 1.63 ± 0.11
112 | UCCUUU | 1.75 ± 0.021 | 1.9 ± 0.073
113 | UCCUUC | 1.71 ± 0.027 | 1.87 ± 0.11
114 | UCCUUG | 1.74 ± 0.036 | 1.86 ± 0.082
115 | UCCUUA | 1.65 ± 0.025 | 1.83 ± 0.15
